Measurements as given in US20240190985A1 (published 2024).
Substitutions are numbered along the chain they refer to. Names may count otherwise.

Experiments:
[1] = biological target: T1, CD99 endogenously expressed on cells (Jurkat, KOPT-K1) (UniProt P14209 23-185, O-linked glycosylation (natural, on cells)); experiment: cell binding; apparent KD; nM Fv; avid
T1 chain: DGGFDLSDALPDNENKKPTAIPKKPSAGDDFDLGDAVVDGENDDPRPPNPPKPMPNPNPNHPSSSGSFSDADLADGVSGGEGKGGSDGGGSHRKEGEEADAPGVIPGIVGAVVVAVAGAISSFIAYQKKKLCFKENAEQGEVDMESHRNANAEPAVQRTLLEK

[2] = biological target: T1, CD99 endogenously expressed on cells …; experiment: cell binding; apparent KD; nM molecule; avid
[3] = biological target: T2, SUMO-CD99 fusion protein (SUMO fused with the extracellular domain of CD99, residues 23-122) (UniProt P14209 23-122, biotin on the AviTag (BirA, in vitro)); experiment: bead-based titration (flow cytometry); apparent KD, nM Fv, scFv-Fc
T2 chain: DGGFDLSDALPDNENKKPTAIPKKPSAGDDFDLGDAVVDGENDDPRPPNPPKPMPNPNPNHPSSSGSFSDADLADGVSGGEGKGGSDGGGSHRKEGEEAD

[4] = biological target: T1, CD99 endogenously expressed on cells …; experiment: cell binding; apparent KD; nM molecule
[5] = biological target: T1, CD99 endogenously expressed on cells …; experiment: cell binding; apparent KD; nM Fv

B1: 10A1 IgG-E345R (antibody)
heavy: QVQLQQSGPVLVKPSQTLSLTCAISGDSISSDTTAWSWIRRSPSRGLEWLGWTYYRSKWFNYYAVSVKGRVTINPDTSKNQFSLQLSSVTPEDTAVYYCARGNGNGGMDVWGQGTTVTVSSASTKGPSVFPLAPSSKSTSGGTAALGCLVKDYFPEPVTVSWNSGALTSGVHTFPAVLQSSGLYSLSSVVTVPSSSLGTQTYICNVNHKPSNTKVDKKVEPKSCDKTHTCPPCPAPEAAGGPSVFLFPPKPKDTLMISRTPEVTCVVVDVSHEDPEVKFNWYVDGVEVHNAKTKPREEQYNSTYRVVSVLTVLHQDWLNGKEYKCKVSNKALGAPIEKTISKAKGQPRRPQVYTLPPSREEMTKNQVSLTCLVKGFYPSDIAVEWESNGQPENNYKTTPPVLDSDGSFFLYSKLTVDKSRWQQGNVFSCSVMHEALHNHYTQKSLSLSPGK
light: SYVLTQPASASVSPGQTARITCSGDALPKQYAYWYQQKPGQAPVLVIFKDSERPSGVPERFSGSSSGTTVTLTISGAQAEDEADYYCQSVDNSGFYQVFGGGTQLTVLRTVAAPSVFIFPPSDEQLKSGTASVVCLLNNFYPREAKVQWKVDNALQSGNSQESVTEQDSKDSTYSLSSTLTLSKADYEKHKVYACEVTHQGLSSPVTKSFNRGEC
B1 was tested, and the Kd [1] was 16 nM and the Kd [2] was 8 nM.

B2: 10A1 IgG-HCscFv (antibody)
heavy: QVQLQQSGPVLVKPSQTLSLTCAISGDSISSDTTAWSWIRRSPSRGLEWLGWTYYRSKWFNYYAVSVKGRVTINPDTSKNQFSLQLSSVTPEDTAVYYCARGNGNGGMDVWGQGTTVTVSSASTKGPSVFPLAPSSKSTSGGTAALGCLVKDYFPEPVTVSWNSGALTSGVHTFPAVLQSSGLYSLSSVVTVPSSSLGTQTYICNVNHKPSNTKVDKKVEPKSCDKTHTCPPCPAPEAAGGPSVFLFPPKPKDTLMISRTPEVTCVVVDVSHEDPEVKFNWYVDGVEVHNAKTKPREEQYNSTYRVVSVLTVLHQDWLNGKEYKCKVSNKALGAPIEKTISKAKGQPREPQVYTLPPSREEMTKNQVSLTCLVKGFYPSDIAVEWESNGQPENNYKTTPPVLDSDGSFFLYSKLTVDKSRWQQGNVFSCSVMHEALHNHYTQKSLSLSPGKSSGSSGSSSSSGSSSQVQLQQSGPVLVKPSQTLSLTCAISGDSISSDTTAWSWIRRSPSRGLEWLGWTYYRSKWFNYYAVSVKGRVTINPDTSKNQFSLQLSSVTPEDTAVYYCARGNGNGGMDVWGQGTTVTVSSGSSSSSSGSSGSSSSSYVLTQPASASVSPGQTARITCSGDALPKQYAYWYQQKPGQAPVLVIFKDSERPSGVPERFSGSSSGTTVTLTISGAQAEDEADYYCQSVDNSGFYQVFGGGTQLTVL
light: B1 light
B2 was tested, and the Kd [1] was 5.3 nM and the Kd [2] was 1.3 nM.

B3: 10A1 IgG-RGY (antibody)
heavy: B1 heavy with E434G, S444Y
light: B1 light
B3 gave a Kd [1] of 6.2 nM and a Kd [2] of 0.5 nM.

B4: 10A1 IgG-LALA (antibody)
heavy: B1 heavy with R349E
light: B1 light
In the case of B4, the Kd [1] is reported as 5.4 nM and the Kd [2] is reported as 2.7 nM.

B5: clone 10 in the scFv-Fc format (Fc fusion)
chain: QVQLQQSGPVLVKPSQTLSLTCAISGDSVSSDTTAWSWIRQSPSRGLEWLGWTYYRSKWFNYYAVSVKSRVTINPDTSKNQFSLQLSSVTPEDTAVYYCARGNGNGGMDVWGQGTTVTVSSGILGSGGGGSGGGGSGGGGSSYVLTQPPSVSVSPGQTARITCSGDALPKQYAYWYQQKPGQAPVLVIFKDSERPSGIPERFSGSSSGTTVTLTISGVQAEDEADYYCQSADNSGFYQVFGGGTQLTVLSGSSSSLEGCKPCICTVPEVSSVFIFPPKPKDVLTITLTPKVTCVVVDISKDDPEVQFSWFVDDVEVHTAQTQPREEQFNSTFRSVSELPIMHQDWLNGKEFKCRVNSAAFPAPIEKTISKTKGRPKAPQVYTIPPPKEQMAKDKVSLTCMITDFFPEDITVEWQWNGQPAENYKNTQPIMDTDGSYFVYSKLNVQKSNWEAGNTFTCSVLHEGLHNHHTEKSLSHSPGKGGGGLNDIFEAQKIEWHESRHHHHHH
Work on B5 yielded a Kd [3] of 14 nM.

B6: clone 22 in the scFv-Fc format (Fc fusion)
chain: QVQLQQSGPGLVKPSQTLSLTCAISGDSVSSNSAAWNWIRQSPSRGLEWLGRTYYRSKWYNDYAVSVKSRITINPDTSKNQFSLQLNSVTPEDTAVYYCARGSYGSGLVWGQGTTVTVSSGSASAPTGILGSGGGGSGGGGSGGGGSNFMLTQPHSVSESPGKTVTISCTGSSGSIASNYVQWYQQRPGSAPTTVIYEDDQRPSGVPDRFSGSLDTSSNSASLTISGLRPEDEADYYCQSYDNKDNVVFGGGTKVTVLSGSSSSLEGCKPCICTVPEVSSVFIFPPKPKDVLTITLTPKVTCVVVDISKDDPEVQFSWFVDDVEVHTAQTQPREEQFNSTFRSVSELPIMHQDWLNGKEFKCRVNSAAFPAPIEKTISKTKGRPKAPQVYTIPPPKEQMAKDKVSLTCMITDFFPEDITVEWQWNGQPAENYKNTQPIMDTDGSYFVYSKLNVQKSNWEAGNTFTCSVLHEGLHNHHTEKSLSHSPGKGGGGLNDIFEAQKIEWHESRHHHHHH
B6 was tested, and the Kd [3] was 18 nM.

B7: 10A1 Fab (Fab, V domains shown)
VH: QVQLQQSGPVLVKPSQTLSLTCAISGDSISSDTTAWSWIRRSPSRGLEWLGWTYYRSKWFNYYAVSVKGRVTINPDTSKNQFSLQLSSVTPEDTAVYYCARGNGNGGMDVWGQGTTVTVSS
VL: SYVLTQPASASVSPGQTARITCSGDALPKQYAYWYQQKPGQAPVLVIFKDSERPSGVPERFSGSSSGTTVTLTISGAQAEDEADYYCQSVDNSGFYQVFGGGTQLTVL
With B7 the Kd [4] was > 250 nM and the Kd [5] was > 250 nM.
